Data: patent US20250127885A1 (University of Texas, published 2025)
Residue numbers refer to the chain shown, from its start. Numbers in names are those of the source.

T1: HCMV gp34 ectodomain displayed on ExpiCHO cells (human cytomegalovirus (HCMV), UniProt P16809 24-182)
T1 construct: also called gp34-FLAG with a PDGFR anchor; not shown: C-terminal FLAG (M2) tag and PDGFR transmembrane domain
T1 sequence: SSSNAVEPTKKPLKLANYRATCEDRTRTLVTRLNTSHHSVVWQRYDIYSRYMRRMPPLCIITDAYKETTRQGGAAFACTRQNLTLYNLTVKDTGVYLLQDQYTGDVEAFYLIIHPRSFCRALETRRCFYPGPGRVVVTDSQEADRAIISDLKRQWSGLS

B1: anti-gp34 antibody 34-4 with murine IgG2a Fc (antibody, V domains shown)
VH: QVQLQQSGTVLARPGASVKMSCKASGYTFTAYWMHWVKQRPGQGLEWIGAIYPGNSDAGYNQKFKGKAKLTAVTSTSTAYMELSSLANEDSAVYYCTRWGNNSFWGQGTTLTVSS
VL: DIQMTQSPSSMYASLGERVTITCKASQDINSYLTWFQQKPGKSPKTLIYRANRLVDGVPSRFSGSGSGQDYSLTISTLEYEDMGIYYCLQYDEFPPTFGAGTKLELKR
notes: Variable domains on human CL and human CH1 joined to murine IgG2a Fc; also called antibody-mFc; not shown: human CH1 region; murine IgG2a Fc (mFc)
B2: anti-gp34 antibody 34-5 with murine IgG2a Fc (antibody, V domains shown)
VH: QVQLQQSGAELVRPGTSVKVSCKTSGYAFTNYLIEWVKQRPGQGLEWIGVINPGSGGTNYNEKFKGKATLTADKSSSTAYMQLSSLTSDDSAVYFCVLQVGRLAYWGQGTLVTVSA
VL: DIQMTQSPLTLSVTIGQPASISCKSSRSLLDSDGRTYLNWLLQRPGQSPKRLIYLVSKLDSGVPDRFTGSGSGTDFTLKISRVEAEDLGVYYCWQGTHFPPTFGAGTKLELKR
notes: as for B1
B3: anti-gp34 antibody 34-2 with murine IgG2a Fc (antibody, V domains shown)
VH: QVQLQQSGTELVKPGASVKLSCTASGFNIKDTYMHWVKQRPEQGLEWIGRIDPASDDTKYDPKFQGKAAITADTSSNTAYLQLSSLTSEDTAVYYCSKDGYYAYWGQGTLVTVSA
VL: DIVMTQSPASLAVSLGQRATISCRASESVDSYGNSFMHWYQQKPGQPPKLLIYRASNLESGIPARFSGSGSRTDFTLTINPVEADDVATYYCQQSYEVPRTFGGGTKLEIKR
notes: as for B1
B4: soluble wild-type HCMV gp34 ectodomain (receptor)
chain: T1 sequence
notes: Prone to aggregation; SEC-purified for the ELISA; also called WT gp34; wild-type (WT) gp34; not shown: C-terminal FLAG (M2) tag and Strep tag
B5: soluble HCMV gp34 ectodomain with C150S (gp34-M) (receptor)
chain: T1 sequence with C127S
notes: also called gp34 C150S; Soluble gp34 C150S; not shown: C-terminal FLAG (M2) tag and single Strep tag

Columns and labels:
[1] = biological target: T1, HCMV gp34 ectodomain displayed on …; experiment: flow cytometry on gp34-transfected ExpiCHO cells, antibody-mFc at 10 ug/mL, anti-mouse Fcγ AF647
Protocol: Then, hCMV gp34 was expressed on the surface of ExpiCHO cells using a mammalian expression plasmid containing a signal sequence, gp34 ectodomain with a C-terminal FLAG tag, and a PDGFR transmembrane domain. ExpiCHO cells were transfected using the gp34 transmembrane construct and cultured for two days at 37° C./8% CO₂. Successful expression of gp34 on the surface was detected by staining transfected and untransfected ExpiCHO cells with a 1:500 dilution of anti-FLAG PE antibody for 1 hour on ice (Agilent Technologies, Catalogue #PJ315-1). […] Fluorescence was detected using a BD Fortessa system.

[2] = biological target: T2, human IgG1 Fc (no Fab arms) (human, UniProt P0DOX5 230-449 = IgG part); experiment: ELISA, human Fc coated, FLAG-tagged receptor titrated, anti-FLAG (M2)-HRP; curve assigned by paragraph 53 (top line at 10 ug/mL)
T2 construct: also called huFc; hu-Fc

[3] = biological target: T2, human IgG1 Fc (no Fab arms); experiment: ELISA, human Fc coated, FLAG-tagged receptor titrated, anti-FLAG (M2)-HRP; curve assigned by paragraph 53 (lower line at 10 ug/mL)

Row | Binder | binding result [1] | also measured
1 | B1 | binds | 
2 | B2 | binds | 
3 | B3 | binds | 
4 | B4 |  | EC50 (read off the curve) [2]: ~0.1 µg/mL
5 | B5 |  | EC50 (read off the curve) [3]: ~0.04 µg/mL
